Laboratory results taken from patent US20230287362.

Target: T1, E. cloacae His6-CD-NTase fused at its C terminus to GFP
T1 chain: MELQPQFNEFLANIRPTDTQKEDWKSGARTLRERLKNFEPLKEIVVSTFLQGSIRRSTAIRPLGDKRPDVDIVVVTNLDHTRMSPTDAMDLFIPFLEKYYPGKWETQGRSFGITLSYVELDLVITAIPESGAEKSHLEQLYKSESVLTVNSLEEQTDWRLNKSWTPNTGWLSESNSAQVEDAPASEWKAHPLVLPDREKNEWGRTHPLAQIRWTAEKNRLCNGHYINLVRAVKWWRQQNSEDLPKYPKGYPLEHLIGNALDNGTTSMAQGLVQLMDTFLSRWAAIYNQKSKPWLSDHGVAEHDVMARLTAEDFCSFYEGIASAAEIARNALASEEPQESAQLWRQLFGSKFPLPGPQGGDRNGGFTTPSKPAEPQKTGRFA

B1: E. cloacae Cap3, residues 17-180 of the annotated gene (protein)
chain: MSIKDVTFSSEGALYTIVISSSTIEQMVSECLKAGVNETGGILIGSYSEDSSTAMIVEATTRPADSLAGRTTFQRGVRGLRPLLHARWKTGLYYVGEWHFHPGGSPEPSGDDFRSMTSIAANSDYQCLEPVMIILGGDPAGSYSLSASVSPRGDAPIRLREVLI
For B1, the “cleavage of the CD-NTase-GFP model substrate (SDS-PAGE, mass spectrometry)” value was “Both Cap3 proteins precisely cleaved the CD-NTase-GFP fusions at the CD-NTase C terminus”.
